Assay results: PMC8148087
Read-outs that look alike come from different tables or passages of the source.

How the values were obtained:
[1] = target: FAM-HLA (model peptide HLA attached to a FAM fluorophore); test: fluorescence polarisation
[2] = target: FAM-HLA (model peptide HLA attached to a FAM fluorophore); test: fluorescence polarisation; remark: listed apart in the source

| Substance | Kd [1] [µM] | Kd [2] [µM] |
| --- | --- | --- |
| E. coli DnaK Y145W (from UniProt P0A6Y8 1-638) (natural protein) | 8 | 4 |
| E. coli DnaK Y145A (from UniProt P0A6Y8 1-638) (natural protein) | 9 | > 30 |
| E. coli DnaK, wild type (from UniProt P0A6Y8 1-638) (natural protein) | 9 | > 30 |
| human Hsc70 Y149A (from UniProt P11142 1-646) (natural protein) |  | 4 |
| human heat shock cognate protein 70 (Hsc70), wild type (from UniProt P11142 1-646) (natural protein) | 5 | 26 |
